Assays:
Settings in all cases: FMN input: 0 or 200 uM; Eterna round: R93 (includes R88 designs)
[1] = test system: MS2 coat protein; assay: apparent KD of MS2 coat protein, switch ON state; designed switch direction (-1 OFF switch, 1 ON switch): 1; higher = weaker reporter binding
In short: (§1)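 Designed RNA switches were transcribed on-chip from Illumina sequencing clusters. They were then titrated with SNAP-549-labelled MS2 coat protein (twofold steps, 0.7 or 1.5 nM to 3 µM; 0.8–1.5 h to 10–20 min per step) in 100 mM Tris-HCl pH 7.5, 80 mM KCl, 4 mM MgCl2, without or with constant ligand. Apparent KD is the per-design median of normalised cluster binding-curve fits.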

[2] = test system: MS2 coat protein; assay: apparent KD of MS2 coat protein, switch OFF state (with FMN for OFF switches, without FMN for ON switches); designed switch direction (-1 OFF switch, 1 ON switch): 1; higher = weaker reporter binding
In short: as §1

[3] = test system: MS2 coat protein; assay: apparent KD of MS2 coat protein, switch ON state; designed switch direction (-1 OFF switch, 1 ON switch): -1; higher = weaker reporter binding
In short: as §1

[4] = test system: MS2 coat protein; assay: apparent KD of MS2 coat protein, switch OFF state (with FMN for OFF switches, without FMN for ON switches); designed switch direction (-1 OFF switch, 1 ON switch): -1; higher = weaker reporter binding
In short: as §1

Sequence | apparent KD of MS2 coat protein [1] [nM] | apparent KD of MS2 coat protein [2] [nM] | apparent KD of MS2 coat protein [3] [nM] | apparent KD of MS2 coat protein [4] [nM]
AAAAAAAAAACUGAGGAUAUCAGGGAUGGUACAUGAGGAUCACCCAUGUUGGCGGGCGAAGAAACUGAGAAGGCAGAAAAAAAAAA [JR_SameState2_Sub4] | 40.4 | 79.6 | – | –
AAAAAAAAAGUCGAGGAUAUCCACAUGGCUACAUGAGGAUCACCCAUGUGAAGAAAAGCACAUGAGGAGAAGGCGACAAAAAAAAA [Tightrope] | 11.6 | 24.5 | – | –
AAAAAACAUGAGGAUCACCCAUGUAAAAAAAUGGGAGGAUAUCUGAAUUAAUUAAAUUAAGGAGAAGGCCUAAAAA [71%, Same state of confusion2, 4] | 26 | 425 | – | –
CCUAUGUCAGGAUAUCAGUAGUAAAAAAAAAAAAUUACUACUGAGAAGGGACAUGAGGAUCACCCAUGUCCAAA [EX4 312: Super Stable 12] | – | – | 25.6 | 18.4
CCUGUGUGAGGAUAUGGUAAAAAAAAAAAAAAAAAGCUCCUCCAGAAGGCACAUGAGGAUCACCCAUGUCGUGG [Jolly's Folly 15 - Jieux - Exclusion 4] | – | – | 18.9 | 38.2
CUCAAGUAAGGAUAUUGAAGAAAAGAAGAGAAAGAAAAGAACAAGAAGGUACAUGAGGAUCACCCAUGUAAGAA [EteRNA is fun!] | – | – | 33.4 | 16.6
CUCAAGUCAGGAUAUUUAAGAAAAGAAGAGAAAGAAAAGAAAAAGAAGGGACAUGAGGAUCACCCAUGUAAGAA [EteRNA is fun!] | – | – | 60.4 | 41.3
CUCAAGUGAGGAUAUAUAAGAAAAGAAGAGAAAGAAAAGAAAUAGAAGGCACAUGAGGAUCACCCAUGUAAGAA [EteRNA is fun!] | – | – | 29.5 | 24.1
CUCAAGUUAGGAUAUUCAAGAAAAGAAGAGAAAGAAAAGAAGAAGAAGGAACAUGAGGAUCACCCAUGUAAGAA [EteRNA is fun!] | – | – | 53.8 | 26
CUCAUGUGAGGAUAUGUACAGAAAAAAAUGGGUGAAACUGUACAGAAGGCACAUGAGGAUCACCCAUGUGCCAA [EX4 376: S S Pseudoknot 1] | – | – | 52.2 | 16.3
CUCUAGUGAGGAUAUGGAAGAAAAGAAGAGAAAGAAAAGAACCAGAAGGCACAUGAGGAUCACCCAUGUAAGAA [EteRNA is fun!] | – | – | 38.9 | 46.3
CUCUUGUGAGGAUAUCUAAGAAAAGAAAAGAAAGAAAAGAAAGAGAAGGCACAUGAGGAUCACCCAUGUAAGAA [EteRNA is fun!] | – | – | 35.7 | 84.6
CUUAGACAUGAGGAUCACCCAUGUGAGGAUAUGAUGCGAAUAAAGAAAGAAGAAAGCAUCAGAAGGCACAUAUG | – | – | 41.3 | 545
CUUAUGUCAGGAUAUCAGUAGUAAAAAAAUAAAAUUACUACUGAGAAGGGACAUGAGGAUCACCCAUGUCCGGG [EX4 369: Super Stable 69] | – | – | 78.4 | 34
GAAAAACAUGAGGAUCACCCAUGUCAGGAUAUCGAAAAAAAUAAAAAAGAAAAGAAAACGAGAAGGGACAAAAA [May 12] | – | – | 28.2 | 45.6
GAAAAGUCAGGAUAUGCAGACAAAGCAAAAAAGCAAUGUCUGCAGAAGGGACAUGAGGAUCACCCAUGUAAAAA [Mat - Exclusion 4 - Mayanna - D115] | – | – | 51.4 | 45.2
GAAAAUGGAGGAUAUACAUGAGGAUCACCCAUGUGUAAAAAAAAUUACACAAAAGAAAGUAGAAGGCCAUAAAG [Mat - Exclusion 3 - Mayanna mod - D106] | – | – | 49.8 | 138
GAACACGGAGGAUAUACAUGAGGAUCACCCAUGUUGAUCCUCAUUAAAAUUGAUAAAUGUAGAAGGCCGUGAUA [Exclusion 3.11 (a Vinnie Mod, FMN+ favored more)] | – | – | 49.4 | 21.2
GAAGAACAUGAGGAUCACCCAUGUCAGGAUAUGAAUAACGGAAUAAUACGUUAUGGAAUCAGAAGGGACAAGAA [Ex 1 May 52] | – | – | 48.9 | 59.4
GAAGAACAUGAGGAUCACCCAUGUCAGGAUAUGCAGAAGGGAAUAAUAACUUCUGGAAGCAGAAGGGACAAGAA [Ex 1 May 47] | – | – | 29.6 | 30.5
GAAGUGUUAGGAUAUCGAUGAAUAAUAAAACAAAGGAACAUUGAGAAGGAACAUGAGGAUCACCCAUGUAAAAC [May 82] | – | – | 33.4 | 25.6
